# Data: patent US20110263825A1 (OSAKA UNIVERSITY, published 2011)
# Numbering of substitutions follows the chain as printed.
# B1: humanized antibody 1782 clone ff (antibody, V domains shown)
# VH: QVQLVQSGAEVKKPGASVKVSCKASGYTFTSYWMHWVKQAPGQGLEWIGYITPSTGYTDYNKKFKDKATLTADRSSSTAYMELSSLRSEDTAVYYCARSGPYFDVWGAGTTVTVSS
# VL: DILLTQSPATLSVSPGERATLSCRASQNIGTSIHWYQQRPGQSPRLLIKYASESFSGIPSRFSGSGSGTDFTLTINSLQPEDIADYYCQQSNSWPFTFGSGTKLEIK
# notes: kg1 constructs (C kappa / C gamma1 vector); also called h1782ff; hz1782-ff14
# B2: humanized antibody 1782 clone fv (antibody, V domains shown)
# VH: B1 VH with V11L
# VL: B1 VL
# notes: kg1 constructs; also called h1782fv; hz1782-fv02
# B3: humanized antibody 1782 clone ss (antibody, V domains shown)
# VH: B1 VH with K62Q, K65Q, D66G
# VL: B1 VL with V13L, I29V, I33L, R39K, S54R, S56T, N76S, Q79E, I83F
# notes: kg1 constructs; also called h1782ss; hz1782-ss21
# B4: humanized antibody 1782 clone sf (antibody, V domains shown)
# VH: B1 VH
# VL: B1 VL with V13L, I29V, I33L, R39K, S54R, S56T, N76S, Q79E, I83F
# notes: kg1 constructs; also called h1782sf; hz1782-sf23
# Molecular target: T1, human CD20 antigen (human, UniProt P11836 1-297)
# T1 construct: whole, on cells; also called human CD20 molecule
# T1 sequence (looked up): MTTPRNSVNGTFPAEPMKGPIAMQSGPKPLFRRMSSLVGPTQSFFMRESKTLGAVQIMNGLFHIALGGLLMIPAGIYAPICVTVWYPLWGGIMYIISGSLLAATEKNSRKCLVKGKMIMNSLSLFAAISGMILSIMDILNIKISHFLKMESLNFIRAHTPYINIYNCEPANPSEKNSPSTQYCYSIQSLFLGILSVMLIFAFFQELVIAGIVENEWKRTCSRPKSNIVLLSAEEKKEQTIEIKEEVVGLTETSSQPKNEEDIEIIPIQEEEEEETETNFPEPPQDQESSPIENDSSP
# Assay: Scatchard analysis on Raji cells, FITC anti-mouse IgG detection
row,Kd,Molecule
1,6.79 nM,mouse antibody 2B8

# Molecular target: T1, human CD20 antigen
# Assay: Scatchard analysis on Raji cells, FITC-labeled Protein A detection
row,Kd,Molecule
1,4.38 nM,B1
2,6.76 nM,B2
3,8.64 nM,B3
4,7.43 nM,B4

# Molecular target: T1, human CD20 antigen
# Assay: Scatchard analysis on Raji cells, FITC-labeled Protein A detection; repeated from Table 8
row,Kd,Molecule
1,4.38 nM,B1
2,6.76 nM,B2
3,8.64 nM,B3
4,7.43 nM,B4
